Key:
[1] = target: recombinant human AXL, biotinylated (human) (UniProt P30530); test: SPR
[2] = target: T1, AXL in mouse lung tissue (mouse (endogenous in mouse lung tissue), UniProt Q00993 19-888); test: FRET or BRET
T1 sequence: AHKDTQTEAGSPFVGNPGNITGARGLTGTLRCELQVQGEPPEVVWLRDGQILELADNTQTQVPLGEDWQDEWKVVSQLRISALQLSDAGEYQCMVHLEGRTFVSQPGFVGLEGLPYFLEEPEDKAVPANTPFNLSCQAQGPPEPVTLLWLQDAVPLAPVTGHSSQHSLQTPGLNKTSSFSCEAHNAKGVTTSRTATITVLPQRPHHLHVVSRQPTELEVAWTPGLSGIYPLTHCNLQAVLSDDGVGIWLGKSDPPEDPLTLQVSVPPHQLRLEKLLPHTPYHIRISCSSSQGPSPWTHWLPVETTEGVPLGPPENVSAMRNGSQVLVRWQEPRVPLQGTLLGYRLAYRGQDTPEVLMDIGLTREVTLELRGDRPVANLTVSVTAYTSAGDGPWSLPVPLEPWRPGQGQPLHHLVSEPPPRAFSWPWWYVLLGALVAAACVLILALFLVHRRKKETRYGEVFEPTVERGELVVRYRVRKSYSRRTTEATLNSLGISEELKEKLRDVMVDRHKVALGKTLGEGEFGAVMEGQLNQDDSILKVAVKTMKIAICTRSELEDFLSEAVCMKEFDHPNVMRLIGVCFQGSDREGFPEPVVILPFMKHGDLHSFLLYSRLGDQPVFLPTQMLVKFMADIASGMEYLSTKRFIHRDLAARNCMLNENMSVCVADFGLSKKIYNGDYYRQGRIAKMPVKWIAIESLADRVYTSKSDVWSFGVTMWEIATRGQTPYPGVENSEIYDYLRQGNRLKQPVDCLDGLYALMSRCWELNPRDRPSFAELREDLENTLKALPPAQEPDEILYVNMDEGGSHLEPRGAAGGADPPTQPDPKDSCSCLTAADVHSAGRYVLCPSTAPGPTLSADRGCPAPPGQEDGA

Sequence of recombinant human AXL, biotinylated (human) (P30530 26-894): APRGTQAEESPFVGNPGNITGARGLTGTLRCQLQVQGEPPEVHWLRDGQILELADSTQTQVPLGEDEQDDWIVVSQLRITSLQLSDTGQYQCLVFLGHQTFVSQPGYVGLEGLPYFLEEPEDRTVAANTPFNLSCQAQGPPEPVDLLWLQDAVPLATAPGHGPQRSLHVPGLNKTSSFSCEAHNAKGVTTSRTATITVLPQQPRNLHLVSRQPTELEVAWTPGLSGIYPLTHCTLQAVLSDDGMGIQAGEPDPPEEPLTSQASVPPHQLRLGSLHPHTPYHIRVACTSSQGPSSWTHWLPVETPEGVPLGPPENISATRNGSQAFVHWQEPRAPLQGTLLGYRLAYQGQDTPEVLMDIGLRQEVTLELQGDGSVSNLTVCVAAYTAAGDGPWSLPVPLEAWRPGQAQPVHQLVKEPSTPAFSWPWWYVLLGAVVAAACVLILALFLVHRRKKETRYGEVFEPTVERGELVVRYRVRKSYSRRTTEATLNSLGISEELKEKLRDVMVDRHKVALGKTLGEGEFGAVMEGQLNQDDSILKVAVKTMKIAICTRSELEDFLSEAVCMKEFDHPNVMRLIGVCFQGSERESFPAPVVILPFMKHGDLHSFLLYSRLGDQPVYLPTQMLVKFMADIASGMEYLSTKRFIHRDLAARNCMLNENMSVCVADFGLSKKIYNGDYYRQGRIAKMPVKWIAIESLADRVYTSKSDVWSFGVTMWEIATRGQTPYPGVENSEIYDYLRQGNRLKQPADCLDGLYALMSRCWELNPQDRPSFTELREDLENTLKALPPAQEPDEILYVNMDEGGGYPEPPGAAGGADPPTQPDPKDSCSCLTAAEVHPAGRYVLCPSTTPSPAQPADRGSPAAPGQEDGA
Sequence of recombinant human GAS6 (Q14393 31-678): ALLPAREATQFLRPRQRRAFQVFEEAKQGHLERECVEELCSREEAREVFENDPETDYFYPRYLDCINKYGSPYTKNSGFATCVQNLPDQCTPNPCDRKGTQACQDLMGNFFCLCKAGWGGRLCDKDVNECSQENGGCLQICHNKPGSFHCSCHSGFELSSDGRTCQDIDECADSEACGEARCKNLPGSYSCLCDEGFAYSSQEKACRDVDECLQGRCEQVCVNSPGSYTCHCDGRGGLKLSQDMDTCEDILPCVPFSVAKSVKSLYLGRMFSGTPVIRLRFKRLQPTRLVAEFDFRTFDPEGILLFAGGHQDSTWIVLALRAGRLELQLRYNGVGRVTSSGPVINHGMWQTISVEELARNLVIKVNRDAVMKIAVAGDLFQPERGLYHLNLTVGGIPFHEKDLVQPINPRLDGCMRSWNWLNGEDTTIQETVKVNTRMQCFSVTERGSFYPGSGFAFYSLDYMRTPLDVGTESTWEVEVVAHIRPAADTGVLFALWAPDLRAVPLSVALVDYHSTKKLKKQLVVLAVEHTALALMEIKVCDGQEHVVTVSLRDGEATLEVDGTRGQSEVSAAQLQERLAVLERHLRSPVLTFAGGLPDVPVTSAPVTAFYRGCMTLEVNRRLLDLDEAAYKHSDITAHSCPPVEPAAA

Molecule	Kd [1] [nM]	FRET efficiency (%Ef) of one coincident region [2] [%]
recombinant human GAS6 (from UniProt Q14393 31-678) (ligand)	0.11	
recombinant human PROS1 (from UniProt P07225 42-676) (ligand)	52.1	
GAS6 in mouse lung tissue (ligand) VLLRAREAAQFLRPRQRRAYQVFEEAKQGHLERECVEEVCSKEEAREVFENDPETEYFYPRYQECMRKYGRPEEKNPDFAKCVQNLPDQCTPNPCDKKGTHICQDLMGNFFCVCTDGWGGRLCDKDVNECVQKNGGCSQVCHNKPGSFQCACHSGFSLASDGQTCQDIDECTDSDTCGDARCKNLPGSYSCLCDEGYTYSSKEKTCQDVDECQQDRCEQTCVNSPGSYTCHCDGRGGLKLSPDMDTCEDILPCVPFSMAKSVKSLYLGRMFSGTPVIRLRFKRLQPTRLLAEFDFRTFDPEGVLFFAGGRSDSTWIVLGLRAGRLELQLRYNGVGRITSSGPTINHGMWQTISVEELERNLVIKVNKDAVMKIAVAGELFQLERGLYHLNLTVGGIPFKESELVQPINPRLDGCMRSWNWLNGEDSAIQETVKANTKMQCFSVTERGSFFPGNGFATYRLNYTRTSLDVGTETTWEVKVVARIRPATDTGVLLALVGDDDVVPISVALVDYHSTKKLKKQLVVLAVEDVALALMEIKVCDSQEHTVTVSLREGEATLEVDGTKGQSEVSTAQLQERLDTLKTHLQGSVHTYVGGLPEVSVISAPVTAFYRGCMTLEVNGKILDLDTASYKHSDITSHSCPPVEHATP		6.96

From article doi:10.1101/2025.04.07.647567 (bioRxiv, 2025)
